Assay: soluble on expression in E. coli; label from the status in PepcDB or PDB records

MGSSHHHHHHGGTGENLYFQGGSGKNYFYIPIADDMHCHLRQGDMLDFTVNSIRRGGCNRVLVMPNTHPIISTCSDAQKYLYQLKSRDDDIEYLMTLYLNKNTDENDILSNYYKCNLQGVKIYPSNVTTNSSDGITSLEPYYKVFHALEKLNKSIHIHCEEPNINPLYAEEKYLPHIHDLAIKFPGLNIVLEHISSSESINVIKEFRNVAGSITPHHLYLTIDDVVNMDIYDHAIDNTYIEKYIKNTYHYCKPLPKLLEDKIALQDVIKDDFPRVFLGSDSAPHYKVMKRKPYYKPGIYTQPFLINYVAHILNKFDALDKMENFTSKNASLFLNLAEKKKLAKYYICVEKHPFKLPREYNGVVPFLAGKTLDYDIHYVSKF
soluble on expression in E. coli: not soluble

MSLDFAARQAAFADALLHPDRPVPDGVINARGEPDAARFAVYRNNVFVGLTKALAQRFPVTERLVGSEFFAAMARAYVQDHKPASPLIMEYGDDFPDFVAAFEPAGTLVYLPDVARLEAAWTEAYHAADSAPLDLAAFGAVAPEMLSDLRLLPHPSARLILSNFPVGSIWSAHQEAVVSPVSDWGGQAVLVVRPEMSVNVHVLPPRDAVFAAALFNAATLGEAAEAAFAAAPEFDFGTALVGLAGIGAFRAFQQYKGNEGHHHHHH
soluble on expression in E. coli: not soluble

MLLYKDVISGDELVSDAYDLKEVDDIVYEADCQMVTVKQGGDVDIGANPSAEDAEENAEEGTETVNNLVYSFRLSPTSFDKKSYMSYIKGYMKAIKARLQESNPERVPVFEKNAIGFVKKILANFKDYDFYIGESMDPDAMVVLMNYREDGITPYMIFFKDGLVSEKF
soluble on expression in E. coli: soluble

AHHHHHHGSIIIYTTFPTWESAEKVTKALLEERLVACANLREHKAFYWWQGKIEEDNEIGVILKTREDLWEEVKKRIKELHPYTVPAIIKINVEDVNEEYLKWLLEETKST
soluble on expression in E. coli: not soluble

MAGDPMLKQLKKVIITTAIALATLCSTQAFAETNPYLLMQKTADKLFTNIKNNQTKIKANPEYLRDIVREDLMSYVHIRYAGQLVLGKSLSSVSEPQREKFFNAFGKFIEQAYAQILTQYEDQQIQIENEKPLGDKSIVSIRVNVLSSGSTPPIKLDFKWRKNSKTGEWQAYDMAAEGVSMVATKQNEWSNILRQQGIDALTNQVEKAAKQPITLNKLEHHHHHH
soluble on expression in E. coli: soluble

MPDGTIDGGHPQRPASPRLRSPLLRLATWNVNSIRTRLDRVLDWLGRADVDVLAMQETKCPDGQFPALPLFELGYDVAHVGFDQWNGVAIASRVGLDDVRVGFDGQPSWSGKPEVAATTEARALGATCGGIRVWSLYVPNGRALDDPHYTYKLDWLAALRDTAEGWLRDDPAAPIALMGDWNIAPTDDDVWSTEFFAGCTHVSEPERKAFNAIVDAQFTDVVRPFTPGPGVYTYWDYTQLRFPKKQGMRIDFILGSPALAARVMDAQIVREERKGKAPSDHAPVLVDLHAG
soluble on expression in E. coli: not soluble

MSLKKSLTELISDLKGNENVVNWHEIEPREAKTRPMPESIDERIKAALSKRGIDELYTHQYSAFQYVQKGESIVTVTPTASGKTLCYNLPVLQSIAQDETNRALYLFPTKALAQDQKSELNEIIDEMGIDIKSFTYDGDTSPAIRQKVRKAGHIVITNPDMLHSAILPHHTKWVSLFENLKYIVIDELHTYRGVFGSHVANVIRRLKRICRFYGSDPVFICTSATIANPKELGEQLTGKPMRLVDDNGAPSGRKHFVFYNPPIVNKPLNIRRSATAEVNELAKEFLKNKVQTIVFARSRVRVEIILSHIQELVKKEIGTKSIRGYRGGYLPKERREIERGLREGDILGVVSTNALELGVDIGQLQVCVMTGYPGSVASAWQQAGRAGRRHGESLIIMVANSTPIDQYIVRHPEYFFNRSPESARINPENLIILVDHLKCAAYELPFRADEEFGAMEVSDILEYLQEEAVLHRNGERYHWASESFPASNISLRSASQENVVIVDQSDIANVRIIGEMDRFSAMTLLHDEAIYLHEGVQYQVEKLDWDHKKAYVRKVDVEYYTDANLAVQLKVLEIDKTKEKSRTSLHYGDVTVNALPTIFKKIKMTTFENIGSGPIHLPEEELHTSAAWLEIKTADEDIGEKTLEQLLLGISNVLQHIVPVYIMCDRNDVHVVSQIKAAHTGLPTIFLYDHYPGGIGLAEEVFKRFSDINEAAKQLITHCPCHDGCPSCIGTEIEGIKAKERILQLLDQMSEGHHHHHH
soluble on expression in E. coli: soluble

MLYVILRGRLGNNLFQIATAASLTQNFIFCTVNKDQERQVLLYKDSFFKNIKVMKGVPDGIPYYKEPFHEFSRIPYEEGKDLIIDGYFQSEKYFKRSVVLDLYRITDELRKKIWNICGNILEKGETVSIHVRRGDYLKLPHALPFCGKSYYKNAIQYIGEDKIFIICSDDIDWCKKNFIGKRYYFIENTTPLLDLYIQSLCTHNIISNSSFSWWGAWLNENSNKIVIAPQMWFGISVKLGVSDLLPVSWVRLPNNYTLGRYCFALYKVVEDYLLNILRLIWKRKKNMLEHHHHHH
soluble on expression in E. coli: not soluble

MGRKEEDDCSSWKKQTTNIRKTFIFMEVLGSGAFSEVFLVKQRLTGKLFALKCIKKSPAFRDSSLENEIAVLKKIKHENIVTLEDIYESTTHYYLVMQLVSGGELFDRILERGVYTEKDASLVIQQVLSAVKYLHENGIVHRDLKPENLLYLTPEENSKIMITDFGLSKMEQNGIMSTACGTPGYVAPEVLAQKPYSKAVDCWSIGVITYILLCGYPPFYEETESKLFEKIKEGYYEFESPFWDDISESAKDFICHLLEKDPNERYTCEKALSHPWIDGNTALHRDIYPSVSLQIQKNFAKSKWRQAFNAAAVVHHMRKLHMNLHSPGVRPEVENRPPETQASETSRPSSPEITITEAPVLDHSVALPALTQLPCQHGRRPTAPGGRSLNCLVNGSLHISSSLVPMHQGSLAAGPCGCCSSCLNIGSKGKSSYCSEPTLLKKANKKQNFKSEVMVPVKASGSSHCRAGQTGVCLIM
soluble on expression in E. coli: soluble

GAMAPHFKEELRNLNVRYQSNATLVCKVTGHPKPIVKWYRQGKEIIADGLKYRIQEFKGGYHQLIIASVTDDDATVYQVRATNQGGSVSGTASLEVEVPAKIHLPKTLEGMGAVHALRGEVVSIKIPFSGKPDPVITWQKGQDLIDNNGHYQVIVTRSFTSLVFPNGVERKDAGFYVVCAKNRFGIDQKTVELDVADVPDPPRGVKVSDVSRDSVNLTWTEPASDGGSKITNYIVEKCATTAERWLRVGQARETRYTVINLFGKTSYQFRVIAENKFGLSKPSEPSEPTITKEDKTRAMNYDEEV
soluble on expression in E. coli: soluble

MKQNKLHYTTMIMTQFPDISIQSVESLGEGFRNYAILVNGDWVFRFPKSQQGADELNKEIQLLPLLVGCVKVNIPQYVYIGKRSDGNPFVGYRKVQGQILGEDGMAVFPDDAKDRLALQLAEFMNELSAFPVETAISAGVPVTNLKNKILLLSEAVEDQVFPLLDESLRDYLTLRFQSYMTHPVYTRYTPRLIHGDLSPDHFLTNLNSRQTPLTGIIDFGDAAISDPDYDYVYLLEDCGELFTRQVMAYRGEVDLDTHIRKVSLFVTFDQVSYLLEGLRARDQDWISEGLELLEEDKANNFGANSA
soluble on expression in E. coli: not soluble

MGHHHHHHSHMKPIATVGESYQYPPVNWAALLSPLMRLNFGEEIQQLCLEIMVTQAQSSQNAAALLGLWVTPPLIHSLSLNTKRYLLISAPLWIKHISDEQILGFVENLMVAVFKAASPLGSPELCPSALHGLSQAMKLPSPAHHLWSLLSEATGKIFDLLPNKIRRKDLELYISIAKCLLEMTDDDANRIAQVTKSNIEKAAFVKLYLVSQGRFPLVNLTDMLSVAVQHREKEVLAWMILHSLYQARIVSHANTGVLKRMEWLLELMGYMKCCLPVNILSQYGS
soluble on expression in E. coli: not soluble

MNTPLQRPLADSTGLIENDAHALAVATALAQEFSIDAALRDRERQIPYSELDAVSRSGILGISIPLAFGGAEVNNVILAKVIAQIAQADGSLGQILQNHFHTLEALRVYGSRAQQQRIFAEVLAGALFGVAVDEQGTTNSQICTAVLAPSGEGYRISGRKFCATCAPYTRQILASAVDAQGARYMVFISLDALGLSIVDDGSCFGQRTVGGGSVMFDNVYVTSSDVVPFQVSLNDPNCVERHAQFMHAAVGTGIARAAYEDTLRFVREHARPWPEAAVDKARDDPLTIIEIGRLIIRLHAAEALLERAGAAVDLNRKAVCAENVALASMVVAAAQTLSTEVSLAAGSKLIELGGARATLSDYGLDRHWRNARVHTLYDPARWGPHQQGQQKLAPF
soluble on expression in E. coli: not soluble

GPGSMSEHATTDLEGRYAQLATIQSEIDAAPLLSPTVEKLGDGCNLMTEFSDNPPMLVKVVSLWRNEETKYKGIRYARRDGNCFYRSVVFGMHESLLNNKERAGAHLERITDLSRQVVADYGNFAEDFCHPAVEMAKKIESGECSTVEQLYELSTNGEAEYALYFYRYAVSHHIRTHEDDFLPFVVGMGHETVSEFCSVEVDAVASEADNVQVVAFAQCFDVRVIVEYVDGREGDCTTRHTFQQKDSHDANEYTTIEVTLLYRPGHYDLLYK
soluble on expression in E. coli: soluble

GMNVNFINPFLQSLLNVISTMASLELTPGKPQIKTDNLAKGDVSGLIGMVGPQTKGSLSITFEQKLVLQIMQNMLGENPGKINEEVTDLVGEITNMVTGGAKNLLGQKGYEFEMATPMVVSGQGHTISHKANGTKIIMPFTSSYGTAFIEVCFES
soluble on expression in E. coli: soluble

GGGGGGMADLFSTVQEKVAGKDVKIVFPEGLDERILEAVSKLAGNKVLNPIVIGNENEIQAKAKELNLTLGGVKIYDPHTYEGMEDLVQAFVERRKGKATEEQARKALLDENYFGTMLVYKGLADGLVSGAAHSTADTVRPALQIIKTKEGVKKTSGVFIMARGEEQYVFADCAINIAPDSQDLAEIAIESANTAKMFDIEPRVAMLSFSTKGSAKSDETEKVADAVKIAKEKAPELTLDGEFQFDAAFVPSVAEKKAPDSEIKGDANVFVFPSLEAGNIGYKIAQRLGNFEAVGPILQGLNMPVNDLSRGCNAEDVYNLALITAAQAL
soluble on expression in E. coli: soluble

MSLTRHQRLFVWTVTHGFREYGVAQQKTHHNTMSPEAAIEWVVRQEPGIFIFKDLHPFISSPAVTRWLREAIASFKGTEKAIILMSPYQETPIELEKDVVVLDFALPDLVTLDGVLGQQLGKSRHALGEDSREKLLKAALGLTKDEAEKVYRKAYVKAGQLTEGEVEIVLSEKKQMIRRNEGHHHHHH
soluble on expression in E. coli: not soluble

MSLGDEWARIRKDGALLIGLEGTFPPYSQLAGGQLQGFEVDFGRALAAQMGVTARFQTMVWDHMLDSLAAGRLDAVINQVVATPARGKRFDFSIPYTYSGLQLVVRKPDLTRFRGARDLAGAHVGVSAGTNYEQWLRDNAPQAHIHLYQDDPTKFDGLRRGEVDAIVINRLAAFNLALKSQGELVPTGRVLAREDACVVLRKGNPRLLAEVNRAIGHLQRDGTLQALSRKWFKADIVSEGHHHHHH
soluble on expression in E. coli: soluble

AMNLIFLGTSAGVPTRTRNVTAILLNLQHPTQSGLWLFDCGEGTQHQLLHTAFNPGKLDKIFISHLHGDHLFGLPGLLCSRSMSGIIQPLTIYGPQGIREFVETALRISGSWTDYPLEIVEIGAGEILDDGLRKVTAYPLEHPLECYGYRIEEHDAPGALNAQALKAAGVPPGPLFQELKAGKTITLEDGRQINGADYLAAPVPGKALAIFGDTGPCDAALDLAKGVDVMVHEATLDITMEAKANSRGHSSTRQAATLAREAGVGKLIITHVSSRYDDKGCQHLLRECRSIFPATELANDFTVFNV
soluble on expression in E. coli: soluble

MAEKSFKYIILGGGVSAGYAAKEFANQGVQPGELAVISKEAVAPYERPALSKGYLFPEGAARLPGFHCCVGSGGEKLLPESYKQKGIELILSTEIVKADLSAKSLVSATGDVFKYQTLIIATGSTVLRLTDFGVKGADSKNILYLREIDDADKLVEAIKAKKGGKAVVVGGGYIGLELSAVLRINNLDVTMVFPEPWCMPRLFTADIAAFYETYYTNKGVKIIKGTVASGFTAQPNGEVKEVQLKDGRTLEADIVIVGVGAKPLTSLFKGQVEEDKGGIKTDAFFKTSVPDVYAVGDVATFPLKMYGDVRRVEHVDHSRKSAEQAVKAIKAAEGGAAVEEYDYLPFFYSRSFDLSWQFYGDNVGDSVLFGDSNPSNPKPRFGAYWVQGGKVVGAFMEGGSGDENKALAKVAKARPSAESLDELVKQGISFAAKI
soluble on expression in E. coli: soluble

From the DeepSol protein solubility set
